# Results taken from patent US20220227874A1, “CHIMERIC ANTIGEN RECEPTORS TARGETING EPIDERMAL GROWTH FACTOR RECEPTOR VARIANT III” (published 2022).
# Substitutions are numbered along the chain they refer to.
# B1: 20E12 (antibody, V domains shown)
# VH: EVNLVESGGGLVKPGGSLRLSCEASGFTFSYAWMSWVRQAPGKGLEWVGRIKSIADGGATDYAAPVRNRFTISRDDSRNTLYLEMHSLKTEDTAVYYCTTIPGNDAFDMWGQGTMVTVSS
# VL: DIVLTQSPLSLSVTPGEPASISCRSSQSLLYSNGKNYLDWFLHKPGQSPQLLIYLGSNRASGVPDRFSGSGSGIDFILKISRVEAEDVGVYYCMQAQQTPITFGQGTRLEIK
# B2: 34E7 (antibody, V domains shown)
# VH: B1 VH with A55N, A64S, T80M, M115L
# VL: B1 VL with S26T, Y54F, N58I
# B3: 32G8 (antibody, V domains shown)
# VH: B1 VH with A55T, A59V, T60I, F70C, A106D, T114R
# VL: B1 VL
# B4: 32A10 (antibody, V domains shown)
# VH: QVTLKESGPVLVKPTETLTLTCTVSGFSLSNARMGVSWIRQPPGKALEWLAHIFSTDEKSIRRSLRSRLTLSKDTSKSQVVLTMTNMDPVDTATYFCARDSSNYEGYFDYWGQGTLVTVSS
# VL: EVVMTQSPATLSVSPGERVTLSCRASQSVSSNFAWYQQRPGQAPRLLLYGATTRATGLPGRFSGSGSGTENILTISSLQSEDFAIYFCQQYKDWPFTFGPGSKVDIK
# B5: 14C11 (antibody, V domains shown)
# VH: B4 VH with S30N, L50F, I61F, R63T, F96Y, T115I
# VL: EIVMTQSPATLSVSPGERATLSCRASQSVSNNLAWYQQKPGQAPRLLIYGASTRATGVPARFSGSDSGTEFSLTISSLQSEDFAVYFCQQYKDWPFTFGPGTKVEIK
# B6: 21E11 (antibody, V domains shown)
# VH: B4 VH with A32V, L50F, T56S, F96Y, Y110F
# VL: DMVVTQSPATLSVSPGERATLSCRASQSVGSDLAWYQQPPGQSPRLLIYGASTRATGVPARFSGSGSGTDFTLTITSLESEDFAVYYCQQYNDWPFTFGPGTKVDIK
# B7: 21E7 (antibody, V domains shown)
# VH: B4 VH with K5E, L47P, L50F, I61L, R63L, F96Y
# VL: DVVLTQSPATLSVSPGERATLSCRASQSVNSNLAWYQQNPGQAPRLLIFGSSTRATGIPASFSGSGSGTEFTLTINSLQSEHSAVYYCQQYNDWPFTFGPGTKVDIK
# B8: 46E10 (antibody, V domains shown)
# VH: B4 VH with T83I, F96Y
# VL: B4 VL with A9P, T10N, V19A, S30T, A43S, T52S, L58V, I85V
# B9: 12H6 (antibody, V domains shown)
# VH: B4 VH with F96Y
# VL: B4 VL with V19A, S28G, A43S, T52S, L58V
# B10: 11B11 (antibody, V domains shown)
# VH: B4 VH with R33K, L71M, F96Y, A98V
# VL: B4 VL with V3L, V19A, S31T, Y49F, T52S, L58I, D105E
# B11: 12B2 (antibody, V domains shown)
# VH: B4 VH with A32P, A51G, T56S, I61Y, R63L, T70S, L71I, F96Y, A98V, E105G
# VL: EVVMTQSPATLSVSPGERATLSCRASQSVINNLAWYQQKPGQAPRLLIYGTSTRATDIPARFSGSGSGTEFTLTISSLQSEDFAVYYCQDYNNWPFTFGPGTKVDIK
# B12: 29D5 (antibody, V domains shown)
# VH: B4 VH with A32P, I39L, L50F, I61Y, R62S, R63P, S67G, L71V, M84L, F96Y
# VL: KIVMTQSPATLSVSPGERATLSCRANQIVSSNLAWYQQKPGQAPRLLVFGTSTRATGIPIRFSGSGSGTEFTLTVSSLQSEDFAVYVCQQYNDWPFTFGPGTKVDIK
# B13: 42G9 (antibody, V domains shown)
# VH: B4 VH with V12L, A32P, L50F, I61L, R62K, R63L, D88A, T92S, F96Y, Y110F
# VL: EVVLTQSPATLSVSPGERATLSCRASQSVRSNLAWYQQKSGQAPRLLIYGSTIRATGVPARFSGSGSGTEFTLTISSLQSEDFAVYYCQQYSDWPFTFGPGTKVDIK
# B14: 49B11 (antibody, V domains shown)
# VH: B4 VH with A32V, L50F, T56S, F96Y
# VL: B6 VL with D1E, V3E, S28N, V29I, P39Q, P40S, S43A, Y49S, A60T, E79Q
# B15: 19A9 (antibody, V domains shown)
# VH: B4 VH with K5E, L47P, L50F, I61L, R63L, F96Y
# VL: B7 VL with D1E, L4M, S31R, N39K, S51T, S61R, N76D, A84G, V85L
# B16: 11F10 (antibody, V domains shown)
# VH: QVTLKESGPVLVKPIETLTLTCTVCGFSLSNPRMGVSWIRQPPGKALEWLGHIFSSDEKSYRLFLRSRLSISKDTSKSQVVLTMTNMDPVDTATYYCARDSSDYEGYFDYWGQGTLVTVSS
# VL: EIVMTQSPATLSVSPGERTTLSCRASQSVGSNLAWYQQKPGQAPRLLIYGASTRASGVPARFSGSGSGTEFTLTISSLQSEDFAVYSCQEYNNWPFTFGQGTKVEIK
# B17: 20G5 (antibody, V domains shown)
# VH: EVQLVESGGDLVKPGGSLRLSCAASGFTFTNAWMSWVRQAPGKGLEWVGRIKSKIDGGTTDYAAPVKGRFIISRDDSKNTLSLQMNSLKTEDTAMYYCTTAPGGPFDYWGQGSLVTVSS
# VL: DIVLTQSPLSLPVTPGEPASISCRSSQSLLYSDRRNYLDWFLQKPGQSPHLLIYLGSYRASGVPDRFSGSGSGTDFTLKISRVEAEDVGVYYCMQALQIPITFGQGTRLEIK
# B18: 26B9 (antibody, V domains shown)
# VH: EVQLVESWGVLVKPGGSLRLSCAASGFIFNNAWMSWVRQAPGKGLEWIGRIKSKSDGGTTDYAAPVKDRFTISRDDSKDTLYLQMNGLKTEDTAVYFCTTAPGGPFDYWGQGTLVTVSS
# VL: B17 VL with Y31H, S32R, R34G, R35F, H50Q, G56A, Y58S, G71D, I99T
# B19: 30D8 (antibody, V domains shown)
# VH: EVQLVESGGGLVKPGGSLRLSCEASGFTFSDAWMSWVRQAPGKGLEWVGRIKSKTDGGTTDYVVPLNGRFIISRDDSRNTLYLQLNNLKTEDTAVYYCTTVPGSYGYWGQGTLVTVSS
# VL: DIVMTQSPLSLPVTPGEPASISCRSSQSLLHNKRNNYLDWFLQKPGQSPQLLIYLASNRASGVPDRFSGGGSGTDFTLKISRVEAEDVGVYYCMQAQQTPITFGQGTRLEIK
# B20: 20B9 (antibody, V domains shown)
# VH: QVTLKESGPVLVKPTETLTLTCTVSGFSLSNARMGVSWIRQPPGKALEWLGHIFSTDEKSYSTSLRGRITISKDTSRGLVVLTLTNMDPVDTATYYCARDSSNYEGYFDFWGPGFLVTVSS
# VL: EIVMTQSPATLSVSPGERATLSCRVSQSIGANLAWYQQKFGQAPRLLIYGASTRATGIPVRFSGGGSGTEFTLTISSLQSEDFAIYSCQQYIYWPFTFGPGTTVDIK
# Legend:
# [1] = molecular target: T1, EGFRvIII expressed on cells (F98-npEGFRvIII, NCI-H522-EGFRvIII, U87-KO-EGFRvIII) (human); experiment: flow cytometry, F98-EGFRvIII cells; 2nd Ab only 1.3
# [2] = molecular target: T1, EGFRvIII expressed on cells …; experiment: flow cytometry, F98-EGFRvIII cells; 2nd Ab only 322
# [3] = molecular target: T1, EGFRvIII expressed on cells …; experiment: flow cytometry, EGFRvIII expressing cell line against non-expressing cell lines
# [4] = molecular target: T1, EGFRvIII expressed on cells …; experiment: flow cytometry, F98-EGFRvIII cells; 2nd Ab only 2.3
# [5] = molecular target: T1, EGFRvIII expressed on cells …; experiment: flow cytometry, F98-EGFRvIII cells; 2nd Ab only 258
% positive [1],MFI [2],fold MFI over non-expressing cell lines [3],% positive [4],MFI [5],Binder
97.9%,3980,≥ 10 fold,,,B1
98.5%,4130,≥ 10 fold,,,B2
98.6%,3730,≥ 10 fold,,,B3
,,≥ 10 fold,98.3%,3350,B4
,,≥ 10 fold,98.2%,3210,B5
,,≥ 10 fold,98.5%,3100,B6
,,≥ 10 fold,98.5%,3100,B7
,,≥ 10 fold,98.7%,2990,B8
,,≥ 10 fold,98.3%,3440,B9
,,≥ 10 fold,98.2%,3390,B10
,,≥ 10 fold,97.9%,2750,B11
,,≥ 10 fold,97.9%,2830,B12
,,≥ 10 fold,98.5%,3250,B13
,,≥ 10 fold,98.5%,2980,B14
,,≥ 10 fold,98.1%,3100,B15
,,≥ 10 fold,98%,3280,B16
98.5%,4640,,,,B17
98.6%,5400,≥ 10 fold,,,B18
98.6%,5160,≥ 10 fold,,,B19
,,≥ 10 fold,98.3%,3420,B20
